B1: ID2082: enhancer fragment, SEQ ID NO: 28 (nucleic acid)
DNA: ACAGAAGCCGTTGCTGCAGTAACCACTGCCGCAAGAGCAACTTTGGCAGCAGGCAGGTGCCAGGCAGCAAGCTGAGAGAACACTGACAGATTCAAAGTGTCTTCAGATACAAGGCTTTGTTTGTGCACAGTGAACAAAGGGCATATTGGGAAGGCCTCC
B2: ID4035: enhancer fragment, SEQ ID NO: 29 (nucleic acid)
DNA: CCCAGACTGCCATCTCCACGGCCCCCACACCAGCACACAGATGCCTCATTCACGTGGTGCTCCCAGGGCCTGGCACCAGTTCTGAGGCTTAAAATAGGCACACAACGGGCCTTTGTCGGATAGAGGAAGGAAGGAAGGAGCGTTTCAGACAAAGGAGACA
B3: ID1667: enhancer fragment, SEQ ID NO: 30 (nucleic acid)
DNA: ACCCTTTGCAGAGAGGAAAGAGAAAGGAGGTCTCCTGTTGGGGAGATCTGCTTTAGAGGTTAGGAAGAATGGTGGAGTTGTAAGACATTGGAATCACTGTCTAGGAAGGACAGTGGCCTTTTATCCAGGGCTATTTAAAAACAGACAGAGCTTCATCTAT
B4: ID2816: enhancer fragment, SEQ ID NO: 31 (nucleic acid)
DNA: TTCCTGCATCTGGCCCTCTTTGAGAGCCCCTTGTGTGCCAATGACAAACCCTTCTTTATTTAAGCTCCTCTGAAGTGCCTTCCTGGTCTTGGCAGCTGGACAGGGCCCTGAATAAGACAGCGAGCCTCAATGGCAGGCTACCCCAGGGCTGGGTGACGTA
B5: ID0403-1: enhancer fragment, SEQ ID NO: 32 (nucleic acid)
DNA: TGCCTCTCTTCCATTGGCATTGGAGTGGCTATAGGCCTTTGGAGGACCTGGCAAAGGGGAAGTTGATTTAGGGGTTCATTGAATTGAGGGGAAGTATGTAAGTGGTTTGCAGTCACTTCCTTGTGTGGTACTCTTGTATAGTAATGATTTCCTGGAATA
B6: ID0403-2: enhancer fragment, SEQ ID NO: 33 (nucleic acid)
DNA: ATGTTAAACAGTGAAATCATCAGCAAAAAGCACAAAACTGCAGAAAACATGGCACTAAATAGAACACAAAAAGGACACTTGTTTACAGTATGAGAGCAGAAACAAGGAAACAGTGTTTCCTTGTTCAGCCACAGCTGGGACCTTGTGTGT
B7: ID4431: enhancer fragment, SEQ ID NO: 35 (nucleic acid)
DNA: AAATGGTGATTATCATCATTTGTTCAGGGACATTAGCATGAAGGCCGAATGTTCTGGCACAAAGACACGTCTGTGGGACAGGCAC
modifications: listed as DNA, chemistry not given here
B8: ID3499: enhancer fragment, SEQ ID NO: 36 (nucleic acid)
DNA: AAGAATGAACTGGGCCCAGCTGGGCATTTGCATCAAAGTGCCTCACCAGAGTTCCCAGCTGCTCTGGCAGAGTGCCCAGGCTTGCCCCAGAGCCCAAACAGAATGCTCTTTGAGATGCCTCTGGTTTTCA
modifications: listed as DNA, chemistry not given here
B9: CSE194: clustered SOX dimer motif enhancer, SEQ ID NO: 37 (nucleic acid)
DNA: ATCTCATATATGTGTATATGTATTTATGATTTACATATATACAGACGTATCACACACTCCGAATAGAATACAGATTTCCTTCAATGACAGCAACAACTCAATGACCCGCCCACTAGCATGGCTAAAATACTAAACCACTAGATAGCTTTATGTGAACTTGAGCTTGATTGTTTCTTAGCTCTGCTTCAGAACCTCATGATCATGTGCATGCAATTTCTACAGAAGCGGAAACGTAGATGCTGTGGGTCAGTGAGCATTCCTTTCCAGGGTGCTTCTGAGATGAAGCCCCACGATTAACACAGGGCCCTTAATGATGGGCGGGGGACTAAGCATTCCAAGATTGGCCTGGATTCCTGCCAGAAGGGAGAGAAAGGGGTCTTTGTATGTGGACATCTGAAGGGCGGGCATAAACATGTTAGTTGATACTTAACACCCAAAACCAGTGCCAAAACCGTTAGCTCCCCTCAATAGCCTACTCTGGTTTCAACTGTCCGCGACAATGGAGCAGCCACCTCAATATACAAAACTTGCTCTTTAAACATCCTCAGAGGAATTCCCAAAATAGCAGCTGTTAGAAGCAAACAGACTCTAATTCATTGACATATGCAGACCTTTTAATGTTTTTCTGGTGACGTTTACATTTTTTTTTGTACCTACGCCATCTATGCATTTTTAATAATTACCTTGTAGATTACGTATGCAATCCCTCCAGGCACTTGAAGAAGGAGCCCCGGGATTCATCATCAGATGAAATTGTTAGTTTTTACGGCAAGAGGCCCAGCTAATTTATGCGGGGAATTTTTCAGACGTTTTTCCTCTGGGCTCCCTTCCCTGCTGTCCTCGCGCCTTTCTTCCTCAGTACATTAAGAGATTCTGATGTGCCTGCAGCA
B10: CSE208: clustered SOX dimer motif enhancer, SEQ ID NO: 38 (nucleic acid)
DNA: AGATAAAGCCAGAAATAAAAGGGAAAGAAACAGTTATATGATTTTGGTGGGAATTTGCAGAAATACAGGCTGAAGCTGAAGTCTTCCATCAGGTGAGGTTTTTTCCATTGATCTCATCTCTCGGGCTCAGCTCTTTTATCTCCAGCGCATTTTGGATGTGGCTTCTCTTTCCACCTGCTGGGCCTTTAGATAGAGTACTTCCTTTTGTTTCAAGGTAGCATTTAACTGAGTCTGGAAAAACCATCATTAAGGGAAAATAAAGCTGAAAGATGAATTGAAAACTATGTAAAAGGGCCCTTTCAGGCTGCCGGAGAGATTGCCTTTCCAGCCTAATGAGCCTGTGCTGCCTCTGATTCAGATGGTGCAAGGACAGGAGAAAAGAATGGAGTTTTGTGCACTGCGATTTTCCAAAGCACATAATGCTTAGTCATTTGGGGTGTTAGGAAAGAGAGAAAGTCGGAGCGGAGTGTGTGGTGAAGTGAGAGAAAGAAAGAAGGCTGAATTTTCGTTAAGCTGCTCAAATGCCTGCTTTAACAAAAGTCTGCCAGGGCTAGAGGTGATTAGCCATCAGTGCTGCTGCTGTTTTTGCTGTCG
B11: ID0109: enhancer fragment, SEQ ID NO: 6 (nucleic acid)
DNA: GAAATTGGATCCTGAGGAGAATGTCACCACCTCTTTGACAATAACTAGCTTTCAGAGCTGAACACAGTGAATCTGGATACTGTGTATATGTTTAAATGAGTTAGGAAATGACATCACATTATTTATTTCTTCTTTTGTGACTTAGTAAATTGACTTGGCC
B12: CSE222: clustered SOX dimer motif enhancer, SEQ ID NO: 39 (nucleic acid)
DNA: CTCTTTGGGTCTAGGTATCATTTTGGGATCACATCATGATAACTCTATGTGTGTGTGCTGGGAGGGCAAAGTTGCAAAGCAATTACTCAGCAATGCTGAAGAAAGAAGCAATTACTGGAACACATTTTAGCCCCGCTTGTCAGAGTGACTTTCACTGGGGCACAAGGGAAGCATTCACTTAGGCAGTATCCCTTTCAGAGGCTTAATTTAGTTTTTTCTTCCCTTTAATTGTGTGATTCCAGTATTTTAGCTACAATCCCTAGGCTGTAGGAACCTTTAAACACTTCTTTTTATAAAAGAAATGCATGGGCTTTTGAAGAATAAACAGGGGGCTGCATAATTTATAGGAAAATGGCACCATGGACTTTTCCTTCACAAAGAACATTGGGGTTACATTGGAACAAGCCAAATATGTTTTTAATGAATAGTCAGTAATCAGCAGCAGCTACAGTAAGTGCTTGAAATTTTTCTTTTATGTGCTATGAGTCCACAAACTAAGCATCTGATTCTGATTGCAGCCATGA

These molecules were tested on GSC7 cells (assay: Nano-Glo Dual-Luciferase Reporter (Nanoglo DLR) assay of enhancer activity, fold change to mCMV). Details: expression fold change of the individual enhancer compared to mCMV.
Assay type: cell-based, human
Excerpt: We chose an arrayed library format, with 160 bp enhancer fragments individually cloned into separate plasmids and arrayed in 96 well plates. These 160 bp were synthesized as a single pool of oligos, then randomly cloned into the plasmid and isolated. 20 bp×2 were needed for PCR amplification of the pool and so a library of 200 bp fragments was synthesized (Twist Biosciences). To meet our oligo synthesis strategy, ChIP-seq peaks expressed by GSCs were merged into a single oligo. This oligonucleotide pool was PCR-amplified (using limited cycles to reduce bias and ‘jackpot’ products meaning products which are easier to amplify will overtake the oligonucleotide pool) and cloned into the expression vector by an efficient Golden Gate reaction. 4579 individual plasmids were then randomly picked, isolated and plated as an arrayed plasmid DNA library on 96 well plates (×48). The bacterial colony picking and production of plasmid minipreps were supported by the Edinburgh Genome Foundry (S. Rosser). This library was then screened using the optimised Nanoglo DLR assay (Nano-Glo Dual-Luciferase Reporter Assay, Promega) in 384 well format. Each plate was transiently transfected together with PGK-FFLuc in a 1:10 ratio into GSC7 cells. 2 days later a Nanoglo DLR assay was performed and assayed on a plate reader.
Cells were seeded in 384 well plates using a multidrop and transfected the following day using the CyBio Felix. Two days later the experiment was terminated with a Nanoglo DLR assay and all hits with a fold change to mCMV greater than 10 were Sanger sequenced and mapped back to the genome.
Cells were seeded at the required density. The following day the transfection was carried out. For this the Plus reagent and Lipofectamine LTX (Life Technologies, 15338030) were each diluted in half the volume of Opti-MEM I Reduced-Serum Medium (further referred to as Optimem) (Life Technologies, 31985062). Following this step, the Plus reagent/Optimem premix was added to all DNA samples followed by the Lipofectamine LTX/Optimem premix. The transfection mix was incubated for 5 min at room temperature and then carefully dropped on the cells. Generally, no media change was carried out. Cells were analysed two days following transfection.
This assay consists of two steps. The transfection was carried out using a normalisation plasmid PGK-Firefly-Luciferase (Promega, E5011) that was transfected in a 1/10 ratio with the plasmid of interest. First, the Firefly Luciferase activity is measured which allows to normalise to transfection efficiency. In a second step, the activity of Nanoluc is determined which is the readout of the plasmid of interest. Cells were washed 3× with PBS and 20 μl was left in the 96 well plate after the final wash (25 μl in 384 well). Oneglo buffer was added and the plate was shaken for 5 min at 480 rpm to allow cell lysis. 20 μl cell lysate in 96 well format or 25 μl cell lysate in 384 well format was then transferred into the corresponding opaque white plate and luminescence was measured at for 0.1 s per well using the Ensight Multimode Plate Reader. For the following Nanoluc reaction in a 96 well format 2 μl cell lysate was transferred into an opaque white plate containing 40 μl PBS, and 20 μl Stopglo buffer, supplemented with substrate, was added to each well. In a 384 well format 20 μl Stopglo buffer containing substrate were added on top of the undiluted cell lysate. The plate was shaken again for 5 min at 480 rpm to quench the firefly luciferase reaction and ensure good mixing. Nanoluc activity was measured for 0.1 s per well, again using Ensight Multimode Plate Reader.
Data obtained by the Nanoluc reaction was normalised to Firefly reaction to account for well-to-well variability of transfection efficiency. Normalised data were used to calculate the fold change to the empty vector control mCMV.

Molecule	Fold change (Median) [fold]
B1	26.4
B2	26.2
B3	25.2
B4	25.1
B5	24.9
B6	24.9
B7	21.2
B8	20.7
B9	14.54
B10	45.5
B11	116.4
B12	145.9

— patent US20260241035A1, “FUNCTIONAL NUCLEIC ACID MOLECULE AND METHOD” (THE UNIVERSITY COURT OF THE UNIVERSITY OF EDINBURGH, priority 2022, published 2026)
